Experimental data as given in patent publication US20250366499A1, “Flavin-Containing Monoamine Oxidase MAO6sh Capable of Degrading Biogenic Amines and Application Thereof” (Jiangnan University, priority 2024, published 2025).
Values joined by “and” are separate entries in the source; they are usually repeats but may differ in a detail not shown here. Equal values may be shown once.

Columns and labels:
[1] = Enzyme activity measurement (peroxidase-coupled, A510), substrate tryptamine; type: biochemical
Description: (§1) Enzyme activity measurement: The activity of a biogenic amine oxidase was measured by an indirect measurement method of […]. The amine oxidase acts on biogenic amines to degrade the biogenic amines into corresponding aldehydes and hydrogen peroxide. Under the presence of peroxidase, hydrogen peroxide reacts with 4-aminoantipyrine and 2,4,6-tribromo-3-hydroxybenzoic acid to generate a quinone dye. The product has a maximum absorption value at 510 nm, and the magnitude of the activity of the amine oxidase was linearly related to the color intensity of the product within a certain range, so that the activity of the amine oxidase can be measured by measuring the change in A510.
(§2) The reaction was carried out in a 96-well plate. The reaction system included 20 μl of enzyme solution (80 ug·mL^−1) and 100 μl of prepared solution (including 200 mmol·L^−1 potassium phosphate buffer with a pH of 7.6, 1.5 mmol·L^−1 4-aminoantipyrine, and 1 mmol·L^−1 2,4,6-tribromo-3-hydroxybenzoic acid). To initiate the reaction, 20 μL of biogenic amine solution (10 mmol·L^−1) and 70 µL of peroxidase (1.4 mg·mL^−1) were added, the absorbance was measured at 510 nm, the reaction temperature was 37° C., and the reaction time was 10 min. The change in absorbance of 0.01 per minute was defined as one enzyme activity unit (U).
(§3) Definition of specific activity of monoamine oxidase (U/mg): The enzyme activity per milligram of protein.
(§4) The catalytic ability of the monoamine oxidase MAO6^sh before and after purification was measured respectively using a single biogenic amine as a substrate. Systems containing putrescine, tyramine, histamine, cadaverine, phenylethylamine, tryptamine, spermine or spermidine with a concentration of 10 mmol/L were prepared respectively, the pure enzyme in Example 3 was added to the reaction system after adjusting the protein concentration (80 ug/mL, 20 uL) for reacting for 30 min at 37° C., and the results were shown in
(§5) After the enzyme solution purified in Example 3 was respectively incubated for 30 min in water baths at 15° C., 30° C., 35° C., 40° C., 45° C., 50° C., 55° C. and 60° C., the enzyme activity was measured according to the standard enzyme reaction system to determine the stable temperature range thereof, and the results were shown in FIG. 6. […] When the incubation temperature was 50° C., the residual enzyme activity for putrescine was 36.66%, the residual enzyme activity for cadaverine was 30.55%, and the residual enzyme activity for tryptamine was 26.34%.
(§6) The reaction system was the same as that of Example 5, except that ethanol with different concentrations (0-20% vol) was added respectively. […] When the concentration of ethanol was about 15 vol %, the relative enzyme activities of the monoamine oxidase MAO6^sh for putrescine, tryptamine and cadaverine were 9.57%, 11.21% and 13.67% respectively (FIG. 9).

[2] = type: biochemical
Description: as §1
The reaction was carried out in a 96-well plate. […] To initiate the reaction, 20 μL of biogenic amine solution (10 mmol·L^−1) and 70 µL of peroxidase (1.4 mg·mL^−1) were added, the absorbance was measured at 510 nm, the reaction temperature was 37° C., and the reaction time was 10 min. The change in absorbance of 0.01 per minute was defined as one enzyme activity unit (U).
The catalytic ability of the monoamine oxidase MAO6^sh before and after purification was measured respectively using a single biogenic amine as a substrate. […]

[3] = Degradation in commercially available Huangjiu, spermidine; type: biochemical; conditions: Huangjiu 18% vol, enzyme 200 μg/ml added 1:1, about 28° C., 48 h
Description: (§7) The content of biogenic amines was detected by high-performance liquid chromatography (HPLC).
(§8) The recombinant monoamine oxidase MAO6^sh prepared in Example 3 was subjected to ultrafiltration and concentration to adjust the protein concentration to 200 μg/ml, and then added to the Huangjiu in a ratio of 1:1 for reacting at a room temperature of about 28° C. for 48 h. The control group was commercially available Huangjiu (18% vol) without enzymes, and the total content of biogenic amines in the control group was 136.2 mg·L^−1.

[4] = Application in commercially available low-salt soy sauce; type: biochemical; conditions: enzyme 200 ug/ml, 25° C., 24-48 h
Description: The recombinant monoamine oxidase MAO6^sh prepared in Example 3 was subjected to ultrafiltration and concentration to adjust the protein concentration to 200 ug/ml, and then added to the commercially available low-salt soy sauce for standing at a room temperature (25° C.) for 24-48 h.

[5] = Application in table vinegar; type: biochemical; conditions: enzyme 200 μg/ml, 25° C., 24-48 h
Description: The recombinant monoamine oxidase MAO6^sh prepared in Example 3 was subjected to ultrafiltration and concentration to adjust the protein concentration to 200 μg/ml, and then added to the commercially available table vinegar for standing at a room temperature (25° C.) for 24-48 h.

[6] = Degradation in commercially available Huangjiu, histamine; type: biochemical; conditions: Huangjiu 18% vol, enzyme 200 μg/ml added 1:1, about 28° C., 48 h
Description: as §7, §8

[7] = Enzyme activity measurement (peroxidase-coupled, A510), substrate putrescine; type: biochemical
Description: as §1, §2, §3, §4, §5
The reaction system was the same as that of Example 5, except that the pH of the reaction system was respectively adjusted to 3.0-9.0, the enzyme activity of the recombinant enzyme MAO6^sh under different pH reaction conditions was measured, the relative enzyme activity at each temperature was calculated respectively using a single biogenic amine as a substrate at the highest enzyme activity of 100%, and the results were shown in FIG. 7. When putrescine was used as a substrate, the optimal pH for the MAO6^sh was about 5.0-6.0. When the pH was within the range of 3.0-5.0, the enzyme activity […] rapidly with the increase of the pH. However, under alkaline conditions, the tolerance was stronger than the acid tolerance.
as §6

[8] = Application in fermented sausage; type: biochemical; conditions: enzyme 200 μg/ml added to raw material, versus sausage without enzyme
Description: 65-80% of lean meat and 20-35% of fat meat were taken by mass and cleaned, and bones, tendons, myolemma, lymph nodes, blood vessels, lesions and injury sites were removed. The fat meat and the lean meat were separated and cut into 4-5 cm meat pieces. The lean meat and about 5-8% of flake ice were placed in a chopper and chopped for 1-3 min. Based on the mass of pork, […] of sodium nitrite, 2-3% of table salt, 0.2-0.3% of compound phosphate, and 0.05-0.06% of sodium ascorbate were added. Spices, pepper, garlic, chili, and nutmeg were 0.2-0.3% of the raw meat. The recombinant monoamine oxidase MAO6^sh prepared in Example 3 was subjected to ultrafiltration and concentration to adjust the protein concentration to 200 μg/ml, and then added to the sausage raw material for chopping for 1-2 min, and then, the fat meat and about 5-8% of flake ice were added for chopping for 4-6 min. The sausage was pickled and then poured into the sausage casing. The sausage poured into the sausage casing was pickled at 4° C. for 12 h, then heated to 30° C., fermented until the pH decreased to about 5.1, and matured at 14-16° C. for 1-10 d.

[9] = Degradation in commercially available Huangjiu, total biogenic amines; type: biochemical; conditions: Huangjiu 18% vol (control 136.2 mg/L total), enzyme 200 μg/ml added 1:1, about 28° C., 48 h
Description: as §7, §8

[10] = Degradation in commercially available Huangjiu, spermine; type: biochemical; conditions: Huangjiu 18% vol, enzyme 200 μg/ml added 1:1, about 28° C., 48 h
Description: as §7, §8

[11] = Degradation in commercially available Huangjiu, putrescine; type: biochemical; conditions: Huangjiu 18% vol, enzyme 200 μg/ml added 1:1, about 28° C., 48 h
Description: as §7, §8

[12] = Enzyme activity measurement (peroxidase-coupled, A510), substrate cadaverine; type: biochemical
Description: as §1, §2, §3, §4, §5, §6

[13] = Degradation in commercially available Huangjiu, tryptamine; type: biochemical; conditions: Huangjiu 18% vol, enzyme 200 μg/ml added 1:1, about 28° C., 48 h
Description: as §7, §8

[14] = Degradation in commercially available Huangjiu, phenylethylamine; type: biochemical; conditions: Huangjiu 18% vol, enzyme 200 μg/ml added 1:1, about 28° C., 48 h
Description: as §7, §8

[15] = Degradation in commercially available Huangjiu, cadaverine; type: biochemical; conditions: Huangjiu 18% vol, enzyme 200 μg/ml added 1:1, about 28° C., 48 h
Description: as §7, §8

[16] = Degradation in commercially available Huangjiu, tyramine; type: biochemical; conditions: Huangjiu 18% vol, enzyme 200 μg/ml added 1:1, about 28° C., 48 h
Description: as §7, §8

[17] = crude enzyme solution, induction at 16° C.
[18] = pure enzyme 80 ug/mL, 10 mmol/L substrate, 37° C., 30 min

B1: MAO6^sh: recombinant flavin-containing monoamine oxidase from Saccharopolyspora hirsuta, amino acid sequence SEQ ID NO. 1, expressed in E. coli BL21/pET28a-MAO6^sh (protein, listed as Saccharopolyspora hirsuta)
chain: MDSYDVVVIGAGFAGLVAARELALRGHAVVVLEARDRIGGRTWTDERLGRRLEMGGTWVHWLQPHVWSEITRYDQRIEPSPSSQAVHWVAGGSAHRGSPEEFDALISPGMDQLARDSRAWFPLPYEPLHRADLDQVDHLSVADYFAGLDLNPVEREVTEGVWAEHFNGPAAVSGYTQAMRWCAAASGNWQLLHQATSGYRLTGGTAALAGAIAADGGAELHLGSVVASVSQDSGGATVSTTDGTSVRARRVICTLPLNVLGTVDFQPALPATKLAASAERTASQGLKTWIRVRGEVAPFTAYAPDSHDLTFVRPEYTVEGDTLLVAFGTRAADLAPDDVDGVARALRVWRDDLEVLEVSGHDWMTDDFSRETWPMQRPEQLTRYLAALQEPHGVVRFAGSDLATGWAGFIDGAVESGLRASRAVQDALRGPRG
residual enzyme activity for tryptamine ([1]; 30 min incubation at 50° C.): 26.34%
specific enzyme activity for tryptamine [1, 17]: 13.94 U/mg
relative enzyme activity for tryptamine ([1]; ethanol about 15 vol %): 11.21%
relative enzyme activity for tryptamine ([1]; ethanol lower than 10% vol): 30.27%
specific enzyme activity for tryptamine [1, 18]: 149.16 U/mg
residual enzyme activity ([2]; 30 min incubation, incubation temperature exceeds 45° C.): about 30%
optimal temperature ([2]; most suitable substrate, reaction temperatures 25-60° C.): 45-50 °C
Degradation rate, Spermidine [3]: 8.51%
reduction of content of biogenic amines [4]: effectively reduce the content of biogenic amines
reduction of content of biogenic amines [5]: effectively reduce the content of biogenic amines
Degradation rate, Histamine [6]: 21.44%
residual enzyme activity for putrescine ([7]; 30 min incubation at 50° C.): 36.66%
specific enzyme activity for putrescine [7, 17]: 15.66 U/mg
relative enzyme activity for putrescine ([7]; ethanol about 15 vol %): 9.57%
relative enzyme activity for putrescine ([7]; ethanol lower than 10% vol): 29.44%
specific enzyme activity for putrescine [7, 18]: 161.59 U/mg
optimal pH ([7]; putrescine as substrate, reaction pH 3.0-9.0): 5.0-6.0
reduction of content of biogenic amines [8]: effectively reduce the content of biogenic amines
degradation rate for total biogenic amines [9]: 25.56%
Degradation rate, Spermine [10]: 7.75%
Degradation rate, Putrescine [11]: 33.76%
residual enzyme activity for cadaverine ([12]; 30 min incubation at 50° C.): 30.55%
specific enzyme activity for cadaverine [12, 17]: 14.70 U/mg
relative enzyme activity for cadaverine ([12]; ethanol about 15 vol %): 13.67%
relative enzyme activity for cadaverine ([12]; ethanol lower than 10% vol): 35.78%
specific enzyme activity for cadaverine [12, 18]: 146.05 U/mg
Degradation rate, Tryptamine [13]: 54.07% and 54.06%
Degradation rate, Tryptamine ([13]; listed as recombinant enzyme): 54.07%
Degradation rate, Phenylethylamine [14]: 5.78%
Degradation rate, Cadaverine [15]: 43.78%
Degradation rate, Tyramine [16]: 19.31%
